The target in assay [1] is vascular Notch3ECD deposits of TgPAC-Notch3R169C mice. Put plainly: in vivo target engagement, co-immunolabelling with Alexa 488-conjugated 5E1 for total Notch3ECD deposits, 2 months old TgPAC-Notch3R169C mice.
Assay [2] deals with T1, Biotinylated NOTCH3 657-848 (human, UniProt Q9UM47 657-848, biotinylated (site not stated)).
T1 construct: also called human NOTCH3 (Octet analysis)
T1 sequence: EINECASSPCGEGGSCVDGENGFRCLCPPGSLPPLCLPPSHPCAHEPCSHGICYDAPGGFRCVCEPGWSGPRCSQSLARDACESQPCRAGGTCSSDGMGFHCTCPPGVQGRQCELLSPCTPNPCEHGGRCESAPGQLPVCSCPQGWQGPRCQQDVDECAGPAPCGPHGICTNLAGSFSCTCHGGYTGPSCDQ
Put plainly: Octet RED (BLI), biotinylated NOTCH3 657-848 on streptavidin tips, 5E1 at 333 nM to 3.3 nM; human NOTCH3 (657-848), Octet. On the procedure: FIGS. 1A-1B show 5E1 binding to human NOTCH3 using OCTET analysis. (A) Kinetic analysis was performed using the Octet RED technology from ForteBio according to the manufactures instruction. Biotinylated NOTCH3 657-848 was immobilized on streptavidin tips at a level of approximately 3 RU each. (B) Subsequent association and dissociation of 5E1 antibody was analyzed at concentrations in the range from 333 nM to 3.3 nM. Data analysis was subsequently done using the ForteBio Data Analysis 7.0 software (Example 3).
Kinetic analysis was performed using the Octet RED technology from ForteBio according to the manufactures instruction. Biotinylated NOTCH3 657-848 was immobilized on streptavidin tips at a level of approximately 3 RU each. Subsequent association and dissociation of 5E1 antibody was analyzed at concentrations in the range from 333 nM to 3,3 nM. Data analysis was subsequently done using the ForteBio Data Analysis 7.0 software (FIG. 1).
A general note: BLI is a label-free optical method that tracks binding on a fibre tip over time.

Consider one molecule from US20200048342A1 (INSERM, published 2020).

B1: 5E1 monoclonal antibody (isotype IgG1) (antibody, V domains shown)
VH: EIQLQQSGTVLARPGASVKMSCKASGYTFTSYWMHWVKQRPGQGLEWIGAIYPGNGDTSYNRKFNGKAKLTAVTSTSTAYMEFSSLTNEDSAVYFCTRDYGSSYDYVMDYWGQGTSVTVSS
VL: DIQMTQSPSSLSASLGERVSLTCRASQDIGSSLNWLQQEPDGTIKRLIYATSSLDSGVPKRFSGSRSGSDYSLTISRLESEDFVDYYCLQYISSPLTFGAGTKLELK
notes: Murine monoclonal IgG1 from a hybridoma; also called 5E1 antibody; 5E1 anti-Notch3
With B1, the percentage of target engagement in assay [1] turned out to be 100%. Also, in assay [2], the Kd (commonly the free concentration of one partner at which half of the binding sites on the other are occupied at equilibrium, for simple one-to-one binding) came to 55 nM.
